Results on 1 substance are retold here after patent US10683486B2, “Methods for producing hepatocytes” (BioLamina AB, priority 2015, dated 2020).

Holding throughout (assay type): cell-based, human
The subject of one data set is hESC-derived hepatocytes. Nature of the data set: Immunostaining of hepatocyte markers and cytochrome P450 expression (hepatocyte maturation). On the procedure:
Differentiation was initiated at 40% confluence, by replacing serum-free medium mTESR1 (Stem Cell Technologies) with endoderm differentiation medium—RPMI 1640 containing 1×B27 (Life Technologies), 100 ng/mL Activin A (PeproTech) and 50 ng/mL Wnt3a (R&D). The medium was changed every 24 hours, for 72 hours. On day 4, endoderm differentiation medium was replaced with hepatoblast differentiation medium, and this was renewed every second day for a further five days. The medium consisted of KO-DMEM (Life Technologies), Serum Replacement (Life Technologies), 0.5% Glutamax (Life Technologies), 1% non-essential amino acids (Life Technologies), 0.2% β-mercaptoethanol (Life Technologies) and 1% dimethyl sulofxide (Sigma) for 5 days. At Day 9, differentiating cells were cultured in hepatocyte maturation medium HepatoZYME (Life Technologies) containing 1% Glutamax (Life Technologies), supplemented with 10 ng/mL hepatocyte growth factor (Peprotech) and 20 ng/mL oncostatin m (Peprotech).
Immunocytochemistry analysis was subsequently performed on hESC-derived hepatocytes. Cell cultures were fixed in 100% ice-cold methanol at −20 degrees Celsius for 30 minutes, and adjacent cells were pre-washed twice with PBS buffer at room temperature. Cell monolayers were blocked with 0.1% PBS-Tween solution containing 10% bovine serum albumin for 1 hour. Subsequently, the monolayers were incubated with primary antibodies diluted in PBS-0.1% Tween/1% BSA at 4 degrees Celsius overnight. After 24 hours, the primary antibodies were removed and the fixed monolayers were washed three times with PBS-0.1% Tween/1% BSA. Cells were incubated with appropriate secondary antibodies diluted in PBS-0.1% Tween/1% BSA for one hour at room temperature and washed with three times with PBS. Cultures were then mounted with PermaFluor™ Aqueous Mounting Medium and counterstained with NucBlue Hoescht 33342. The cells were imaged with the Zeiss Axio Observer Z1 microscope with LD PlanNeoFluar objective lenses, and a Zeiss AxioCamMR3 camera was used for image acquisition. The images were processed through Zeiss Axiovision SE 64 Rel 4.8 and analyzed using Zeiss Axiovision version 4.9.1.0. The percentage of positive cells and standard deviation was estimated from at least five random fields of view.
Post-hepatoblast specification, cell cultures were differentiated toward hepatocytes. Hepatocyte specification was assessed by immunostaining for albumin (ALB), E-cadherin (E CAD), cellular proliferation marker (Ki67), cytochrome p450 2D6 (CYP2D6), and cytochrome p450 3A4 (CYP3A4).
FIG. 5 is a set of nine photomicrographs of hepatic cells on day 18 of differentiation.
Given that cell organisation and cell division are important factors in hepatocyte function, hepatocyte metabolic capacity in vitro was studied. Stem cell derived hepatocytes were first examined for cytochrome P450 expression using well characterised antisera. CYP3A and CYP1A2 activity were measured from days 16-26 using pGlo technology. CYP activity was expressed as relative light units (RLU) per milliliter of media per milligram of protein. Levels of significance were measured by student t-test.
FIG. 6 is a set of six photomicrographs and two bar graphs of gene expression in hepatic cells.

Data set [1] has as its system stem-cell derived hepatocytes. Nature of the data set: Phase contrast morphology and MRP1/HNF4a co-immunostaining (functional organization). Conditions: day 24. The source says:
FIG. 8 is a set of nine photomicrographs from day 24 of differentiation.
The phase contrast images also indicated hepatocytes were arranged in lobule-like structures within the culture dish, reminiscent of regenerating liver.
Around these lobule structures, positive staining for MRP-1, an important basal membrane marker, was detected.

Data set [2] concerns MAN12 derived hepatocytes. The experiment in a line: Protein secretion (ELISA) and CYP p450 activity of MAN12 derived hepatocytes. The note with it: CYP1A2 and CYP3A activity, days 18, 20 and 24. The protocol:
MAN12 cells, a GMP grade cell line, were plated on three different substrates. The first substrate was Matrigel® (MG), and served as a control. The second substrate was coated with 5 micrograms per square centimeter (μg/cm^2) of laminin-521 (LN-521). […] The cells were then differentiated according to the Cameron protocol.
FIG. 15 is a set of four bar graphs. The first row of two graphs show hepatocyte protein secretion for alpha fetoprotein and albumin as analyzed by ELISA on day 24 of differentiation (n=3). No significant differences were observed across the three matrices. The second row of two graphs show the metabolic function of CYP p450 activity on days 18, 20, and 24 for CYP1A2 and CYP3A activity.
(§1) Looking at both Example 4 and Example 5, the MAN11 and MAN12 cells differentiated efficiently on all three substrates, with the majority of cells (>80%) expressing albumin and CYP3A, as detected by immunostaining.
(In general: ELISA stands for enzyme-linked immunosorbent assay.)

Data set [3] relates to MAN11 derived hepatocytes. The experiment in a line: Protein secretion (ELISA) and CYP p450 activity of MAN11 derived hepatocytes. Conditions: day 18, n=3, versus MG. The protocol: MAN11 cells, another GMP grade cell line, were plated on three different substrates. The first substrate was Matrigel® (MG), and served as a control. The second substrate was coated with 5 micrograms per square centimeter (μg/cm^2) of laminin-521 (LN-521). […] The cells were then differentiated according to the Cameron protocol.
FIG. 17 is a set of four bar graphs. […] The second row of two graphs show the metabolic function of CYP p450 activity on day 18 for CYP1A2 and CYP3A activity. No significant differences were observed across the three matrices.
as §1

Consider “LN-521: substrate coated with 5 μg/cm^2 of laminin-521, the protein formed by joining α5, β2 and γ1 chains”, for which, in the data set with hESC-derived hepatocytes (day 18 of differentiation), the “Albumin, percentage of positive cells and standard deviation” value was 89.5% ± 8.7; the “E CAD, percentage of positive cells and standard deviation” value was 67.4% ± 4.4. The “Ki67, percentage of positive cells and standard deviation” value in the data set on hESC-derived hepatocytes (day 18 of differentiation, proliferation marker) is listed as 17.4% ± 6.2. In addition, in the data set with hESC-derived hepatocytes (immunostaining, FIG. 6), the “CYP2D6, percentage of positive cells and standard deviation” value was 85.7% ± 5.7; the “CYP3A, percentage of positive cells and standard deviation” value is listed as 91.3% ± 3.7. Moreover, the “MRP-1 staining, hepatocyte organisation” value in data set [1] is “exhibited networks of organised hepatocytes in vitro”. Further, the “metabolic activity of MAN12 derived hepatocytes” value in data set [2] is listed as “improved metabolic activity”. Also, in data set [3], the Albumin secretion result is “signicantly increased” and the “alpha fetoprotein (AFP) secretion” value was “significant reduction”. For the same substance, the “alpha fetoprotein (AFP) secretion” value in data set [3] (listed as LN-512) was “significantly reduced foetal protein secretion”.
